Laboratory results reported in the supplement of paper PMC10724198.
± gives the standard deviation of the averaged measurements.

These sequences were tested on Saccharomyces cerevisiae (assay: protein stability index of tFT-peptide fusion (C-terminal peptide) (PSI (0-1 scale)); higher = more stable (slower turnover)). Details: genetic background: wild type; temperature: 30 C.
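Also: PSI is a weighted mean of sequencing reads over stability bins, variants kept only with over 10 reads, mCherry proximal and sfGFP distal, peptide attached via GGGS linker.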

| Sequence | protein stability index |
| --- | --- |
| TLPEVELTRQPI | 0.747 ± 0.014 |
| TLPPPPLSTPTL | 0.643 ± 0.1 |
| TLPPPSLPPSSS | 0.652 ± 0.071 |
| TLRILTRRGLVP | 0.703 ± 0.12 |
| TLSHPAHLKPMR | 0.669 ± 0.051 |
| TLSQILVSSSLS | 0.5896 ± 0.0019 |
| TLSSVSEKVVHL | 0.675 ± 0.019 |
| TNGHNGQENGEE | 0.602 ± 0.06 |
| TNTQRYRKTRST | 0.721 ± 0.054 |
| TNYQKANIRINN | 0.667 ± 0.035 |
| TPAPFSSHLVRR | 0.723 ± 0.083 |
| TPASSLFRCASR | 0.656 ± 0.028 |
| TPATRCLASDSR | 0.766 ± 0.11 |
| TPDVLGPLFPGD | 0.642 ± 0.099 |
| TPFLLHPPSPDL | 0.607 ± 0.051 |
| TPGYWVPPPTIP | 0.66 ± 0.027 |
| TPLLAALRPTTS | 0.764 ± 0.07 |
| TPLPPEHLPRSR | 0.661 ± 0.031 |
| TPMDVEVPIAPI | 0.753 ± 0.063 |
| TPNKKTGNQYPG | 0.685 ± 0.038 |
| TPNLHPPSAATP | 0.668 ± 0.038 |
| TPNYPLHPTKKI | 0.681 ± 0.0084 |
| TPPAEGTSQTKL | 0.659 ± 0.054 |

| Sequence | protein stability index |
| --- | --- |
| TPPFPPSPFLTL | 0.783 ± 0.039 |
| TPPPFRLPAPSL | 0.71 ± 0.037 |
| TPPPLSAPSYAG | 0.697 ± 0.014 |
| TPPPPPPFPLPP | 0.654 ± 0.031 |
| TPPPSSLVIFFI | 0.675 ± 0.11 |
| TPPRLLLPAATT | 0.7244 ± 0.0061 |
| TPPSPPLPNQLP | 0.696 ± 0.27 |
| TPRLVFFLPLLP | 0.658 ± 0.029 |
| TPRSPFPPLPPP | 0.698 ± 0.049 |
| TPSLLPSPPFPL | 0.733 ± 0.02 |
| TPSPAPPTPFTP | 0.659 ± 0.023 |
| TPSSDFKPTGVR | 0.654 ± 0.054 |
| TPTFALIHPTET | 0.745 ± 0.031 |
| TPTPLTRRPTQV | 0.673 ± 0.041 |
| TPVPPLLSRCYP | 0.691 ± 0.044 |
| TPVSTNHFYTLE | 0.613 ± 0.0094 |
| TPWGPGAAAAPP | 0.684 ± 0.043 |
| TQKKSTQLIKKK | 0.698 ± 0.067 |
| TQRTSRDPLRAP | 0.652 ± 0.016 |
| TQSYLVSLRCGF | 0.796 ± 0.13 |
| TRDLWWNVRVRA | 0.543 ± 0.015 |
| TRFLWYFVPTTK | 0.704 ± 0.071 |
| TRGCIRWRVVRR | 0.7 ± 0.035 |

| Sequence | protein stability index |
| --- | --- |
| TRLSTPGYLILS | 0.724 ± 0.016 |
| TRRHKPNSGTRP | 0.69465 ± 7.1e-06 |
| TRSNEERKGKKS | 0.731 ± 0.14 |
| TRTFRPPPALPH | 0.691 ± 0.068 |
| TRTGSTPRGSTR | 0.684 ± 0.069 |
| TRYIRKSKTKGA | 0.643 ± 0.014 |
| TSAASPVRYGGS | 0.65 ± 0.014 |
| TSFNQCRVFCRT | 0.614 ± 0.049 |
| TSLSVGVFSSPV | 0.647 ± 0.02 |
| TSPLPRPPPPSY | 0.61 ± 0.043 |
| TSPPPLPLPSLR | 0.686 ± 0.013 |
| TSPTIPSTPFSN | 0.704 ± 0.087 |
| TSSHLLFISSMI | 0.638 ± 0.034 |
| TSSPHGQSVTEP | 0.67 ± 0.05 |
| TSSRHNEVIKGC | 0.706 ± 0.033 |
| TSTQVMYVSCCL | 0.63 ± 0.014 |
| TSVFPLFSPLRS | 0.721 ± 0.029 |
| TSWGSRWLPYAS | 0.665 ± 0.025 |
| TTFHLCLFQKSS | 0.584 ± 0.0071 |
| TTGGRGSRGGGR | 0.723 ± 0.039 |
| TTKKMVRIVSTV | 0.571 ± 0.052 |
| TTPPPPPRHPAP | 0.696 ± 0.019 |
| TTPTPPPALPLP | 0.69 ± 0.019 |

| Sequence | protein stability index |
| --- | --- |
| TTQGICWMAKGV | 0.695 ± 0.0088 |
| TTTQIIRISKSR | 0.673 ± 0.044 |
| TTYKRRTSKTLS | 0.679 ± 0.024 |
| TVCGWSHLFVYN | 0.669 ± 0.026 |
| TVFGLLHALLYS | 0.724 ± 0.037 |
| TVGLSLGRGSGD | 0.67 ± 0.024 |
| TVGSLNSEIAGK | 0.691 ± 0.057 |
| TVIDVIKLMLHL | 0.583 ± 0.044 |
| TVKYVVSTRAFI | 0.627 ± 0.044 |
| TVRFYHGSFRAP | 0.727 ± 0.062 |
| TWGCAGAIRSVG | 0.689 ± 0.094 |
| TWPSGRASGHVG | 0.702 ± 0.0079 |
| TYFMSAFWPPGV | 0.631 ± 0.03 |
| TYGRPICFSFKR | 0.701 ± 0.049 |
| TYKNTVTRTKAY | 0.658 ± 0.02 |
| TYRGKIVAPGVL | 0.656 ± 0.053 |
| TYSTDRPGLHTW | 0.698 ± 0.074 |
| TYTPQVSSVFPI | 0.698 ± 0.018 |
| VACSVVVPGLGG | 0.69 ± 0.017 |
| VAGATGRWIGHG | 0.6771 ± 0.0045 |
| VAGGLRGLGLRA | 0.67 ± 0.053 |
| VAGGWVPGRGEG | 0.69 ± 0.025 |
| VAGWDRETGAWG | 0.58 ± 0.083 |

| Sequence | protein stability index |
| --- | --- |
| VAIRLLCSPLGK | 0.64 ± 0.029 |
| VAIVGCVGKLIR | 0.6468 ± 0.0036 |
| VAKFYQVLMSEG | 0.684 ± 0.014 |
| VALNCWGYQWMG | 0.689 ± 0.04 |
| VALSFYVLRRVP | 0.594 ± 0.015 |
| VALTYRSAGKWA | 0.693 ± 0.058 |
| VAMAGQQLYVTI | 0.665 ± 0.07 |
| VAPPPAPFPPIP | 0.627 ± 0.023 |
| VARADLVVTFRI | 0.703 ± 0.073 |
| VASKAGVLFGIR | 0.673 ± 0.12 |
| VAVAAPVVRAVI | 0.69 ± 0.054 |
| VAVPGRFTGEGV | 0.649 ± 0.061 |
| VAVRARRWASGP | 0.727 ± 0.055 |
| VCARSVLFFWAA | 0.782 ± 0.25 |
| VCDFVLALRGLT | 0.649 ± 0.029 |
| VCGCWWWCGVGW | 0.657 ± 0.043 |
| VCGGCCEVEVGM | 0.622 ± 0.041 |
| VCGGVGGGDNGG | 0.739 ± 0.036 |
| VCGLLGGVWLCL | 0.611 ± 0.021 |
| VCGREVKCGEGY | 0.691 ± 0.027 |
| VCGSILSVFRAY | 0.571 ± 0.0016 |
| VCGSIRVIAWGD | 0.671 ± 0.057 |
| VCLPPPPLPPSC | 0.692 ± 0.041 |

| Sequence | protein stability index |
| --- | --- |
| VCPPPIGYHSYQ | 0.6674 ± 0.0019 |
| VCRGWGVCGEWG | 0.6243 ± 0.0025 |
| VCRPLYNSMFGR | 0.691 ± 0.023 |
| VCSRGVCGFLSG | 0.67 ± 0.01 |
| VCTVSGFGVLGA | 0.751 ± 0.15 |
| VCVAVVGGGCRG | 0.5726 ± 0.0032 |
| VCVSLNVGGVRF | 0.658 ± 0.024 |
| VDIKQDTTNLRL | 0.718 ± 0.0086 |
| VDLCRPLSRPTV | 0.703 ± 0.016 |
| VDLGAGVCSAVC | 0.6195 ± 0.0056 |
| VDLYVRRVGVGG | 0.631 ± 0.037 |
| VDRRCTGLISSS | 0.668 ± 0.05 |
| VEAWGVGVGSTV | 0.676 ± 0.021 |
| VECPFGTAGCHI | 0.659 ± 0.057 |
| VEESNQILERQS | 0.671 ± 0.0093 |
| VEFGAPGFVEEW | 0.734 ± 0.021 |
| VEFGGICSYVGC | 0.724 ± 0.036 |
| VEFVSKSLGVGW | 0.6756 ± 0.0053 |
| VEPTSDNGVVRR | 0.662 ± 0.025 |
| VESGVREEKCMS | 0.708 ± 0.11 |
| VESSSMKGLLCD | 0.66 ± 0.095 |
| VFACVHPLASLT | 0.681 ± 0.048 |
| VFCSLAWFGLLL | 0.598 ± 0.054 |

| Sequence | protein stability index |
| --- | --- |
| VFFLHGLVIYED | 0.563 ± 0.069 |
| VFGAAGVRFFVG | 0.58 ± 0.022 |
| VFGRSFFRLFRG | 0.6444 ± 0.0031 |
| VFGSYFFIPFFL | 0.498 ± 0.016 |
| VFKLRLPAVPHT | 0.734 ± 0.09 |
| VFLSCPCLFFWV | 0.56 ± 0.022 |
| VFLVLFDRLLPL | 0.669 ± 0.0073 |
| VFMVLLLGFRRF | 0.549 ± 0.011 |
| VFRCSGLFFRDG | 0.6621 ± 0.0033 |
| VFRHIGVIYNNF | 0.65 ± 0.013 |
| VFSALAYVVFKG | 0.598 ± 0.032 |
| VFSLQCVSGIFV | 0.568 ± 0.076 |
| VFTFGAGFGARL | 0.801 ± 0.022 |
| VFVPARGAFHGL | 0.69 ± 0.018 |
| VGACGEYGGFFR | 0.67 ± 0.035 |
| VGACWGCGVCPL | 0.755 ± 0.049 |
| VGCGGGEFSLFG | 0.727 ± 0.034 |
| VGCGGRGGRRGW | 0.599 ± 0.019 |
| VGCGVGGIGVLV | 0.712 ± 0.1 |
| VGCLNCWLPFLG | 0.666 ± 0.048 |
| VGCRGTIAIGGR | 0.683 ± 0.0071 |
| VGEGGGEVMGEA | 0.712 ± 0.085 |
